According to publication PMC5731819 (2017):

Target: E. coli DNA sliding clamp β (Escherichia coli (strain K12), UniProt P0A988, maleimide-Atto647N on a single cysteine residue (position not given))
Assay: CoSMoS single-molecule TIRF co-localization (dwell time 14.2 s on clamp-DNA); β clamp loaded by the γ clamp loader (ATP) onto end-blocked primer-template DNA; Pol IIIcore present as competitor

E. coli DNA sliding clamp β, sequence (P0A988 whole entry): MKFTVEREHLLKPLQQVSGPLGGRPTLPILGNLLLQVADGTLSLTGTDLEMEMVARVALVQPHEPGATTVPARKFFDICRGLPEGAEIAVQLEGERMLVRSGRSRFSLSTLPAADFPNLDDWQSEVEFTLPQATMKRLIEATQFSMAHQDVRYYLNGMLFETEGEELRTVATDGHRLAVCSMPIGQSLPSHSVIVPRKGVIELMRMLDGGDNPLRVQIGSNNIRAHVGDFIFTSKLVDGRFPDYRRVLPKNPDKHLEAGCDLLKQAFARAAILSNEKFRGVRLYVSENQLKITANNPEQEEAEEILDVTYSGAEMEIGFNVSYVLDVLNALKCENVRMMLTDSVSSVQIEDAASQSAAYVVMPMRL

B1: E. coli translesion DNA polymerase Pol IV, wild type (protein)
chain: MRKIIHVDMDCFFAAVEMRDNPALRDIPIAIGGSRERRGVISTANYPARKFGVRSAMPTGMALKLCPHLTLLPGRFDAYKEASNHIREIFSRYTSRIEPLSLDEAYLDVTDSVHCHGSATLIAQEIRQTIFNELQLTASAGVAPVKFLAKIASDMNKPNGQFVITPAEVPAFLQTLPLAKIPGVGKVSAAKLEAMGLRTCGDVQKCDLVMLLKRFGKFGRILWERSQGIDERDVNSERLRKSVGVERTMAEDIHHWSECEAIIERLYPELERRLAKVKPDLLIARQGVKLKFDDFQQTTQEHVWPRLNKADLIATARKTWDERRGGRGVRLVGLHVTLLDPQMERQLVLGL
modifications: Atto 565 (CoA-linked) conjugated by Sfp to the N-terminal Ybbr tag
B1: binds.
